How the values were obtained:
Type in all cases: biochemical
[1] = system: Trastuzumab-(GalNAzβ1,4)GlcNAc; assay: HpFT-2HR and HpFT-4HR transferring GDP-FAmSucMMAE to Trastuzumab-(GalNAzβ1,4)GlcNAc; settings: donor 1 mM, enzyme 0.5 mg/mL, 30° C., 3 h and 6 h; FIG. 8A
Procedure: (§1) To 40 mM Tris-HCl (pH 7.5) buffer were added Trastuzumab-(Fucα1,6)(Galβ1,4)GlcNAc (2 mg/mL final), GDP-FAmP4Biotin (1 mM final), MgCl2 (20 mM final), and different HpFT enzymes (HpFT-4HR, HpFT-4HR(M4), HpFT-4HR(M7), HpFT-6HR, HpFT-3HR, HpFT-2HR, HpFT-1HR or HpFT-0HR) (0.5 mg/mL final) in sequence, and the resulting mixed solution was allowed to react at 30° C. for 1 h. Three parallels were set up for each group. After the reaction time point was reached, to the reaction solution was added 10 mM LacNA, and the reaction was terminated by a desalting column (Zeba™ Spin Desalting Columns/2 ml/40K, Thermo Fisher Scientific), and finally mass spectrometry was carried out and % of conversion was calculated. % of conversion=(MAR0 peak intensity*0+MAR1peak intensity*1+MAR2 peak intensity*2)/2* (MAR0 peak intensity+MAR1 peak intensity+MAR2 peak intensity)*100%.
(§2) To 40 mM Tris-HCl (pH 7.5) buffer were added Trastuzumab-(GalNAzβ1,4)GlcNAc or Durvalumab-(GalNAzβ1,4)GlcNAc (2 mg/mL final), GDP-FAmSucMMAE (1 mM final), MgCl2 (20 mM final), and HpFT-2HR or HpFT-4HR (0.5 mg/mL final) in sequence, and the resulting mixed solution was allowed to react at 30° C. for 3 h and 6 h. Three parallels were set up for each group. […]

[2] = system: Trastuzumab-(Fucα1,6)(Galβ1,4)GlcNAc; assay: Transfer of GDP-FAmP4Biotin to Trastuzumab-(Fucα1,6)(Galβ1,4)GlcNAc by different HpFTs; settings: donor GDP-FAmP4Biotin 1 mM, enzyme 0.5 mg/mL, 30° C., 1 h; FIG. 2
Procedure: as §1

Durvalumab-G2F = assay: HpFT-2HR and HpFT-4HR transferring GDP-FAmSucMMAE to Durvalumab-G2F; settings: donor 1 mM, enzyme 0.5 mg/mL, 30° C., 3 h and 6 h; FIG. 7B
Procedure: (§3) To 40 mM Tris-HCl (pH 7.5) buffer were added Trastuzumab-G2F (2 mg/mL final), GDP-FAmP4Biotin (1 mM final), MgCl2 (20 mM final), and different HpFT enzymes (HpFT-4HR, HpFT-4HR(M4), HpFT-4HR(M7), HpFT-6HR, HpFT-3HR, HpFT-2HR, HpFT-1HR, or HpFT-0HR) (0.5 mg/mL final) in sequence, and the resulting mixed solution was allowed to react at 30° C. for 3 h. Three parallels were set up for each group. After the reaction time point was reached, to the reaction solution was added 10 mM LacNAc (N-acetyl-D-lactosamine), and the reaction was terminated by a desalting column (Zeba™ Spin Desalting Columns/2 ml/40K, Thermo Fisher Scientific), and finally mass spectrometry was carried out and % of conversion was calculated. % of conversion=(MAR0 peak intensity*0+MAR1peak intensity*1+MAR2 peak intensity*2+MAR3 peak intensity*3+MAR4 peak intensity*4)/4* (MAR0 peak intensity+MAR1 peak intensity+MAR2 peak intensity+MAR3 peak intensity+MAR4 peak intensity)*100%.
as §2, with “Trastuzumab-G2F” for “Trastuzumab-(GalNAzβ1,4)GlcNAc”, “Durvalumab-G2F” for “Durvalumab-(GalNAzβ1,4)GlcNAc”

[3] = system: Durvalumab-(GalNAzβ1,4)GlcNAc; assay: HpFT-2HR and HpFT-4HR transferring GDP-FAmSucMMAE to Durvalumab-(GalNAzβ1,4)GlcNAc; settings: donor 1 mM, enzyme 0.5 mg/mL, 30° C., 3 h and 6 h; FIG. 8B
Procedure: as §1, §2

Trastuzumab-G2F [4] = assay: Transfer of GDP-FAmP4Biotin to Trastuzumab-G2F by different HpFTs (% of conversion by MS); settings: donor GDP-FAmP4Biotin 1 mM, enzyme 0.5 mg/mL, 30° C., 3 h; FIG. 1
Procedure: as §3

Trastuzumab-G2F [5] = assay: HpFT-2HR and HpFT-4HR transferring GDP-FAmP4Biotin or GDP-FAzP4Biotin to Trastuzumab-G2F; settings: enzyme 0.5 mg/mL, 30° C., 6 h, FIG. 6(A)
Procedure: as §3
To 40 mM Tris-HCl (pH 7.5) buffer were added Trastuzumab-G2F (2 mg/mL final), GDP-FAmP4Biotin or GDP-FAzP4Biotin (1 mM final), MgCl2 (20 mM final), and HpFT-2HR or HpFT-4HR (0.5 mg/mL final) in sequence, and the resulting mixed solution was allowed to react at 30° C. for 6 h. Three parallels were set up for each group. After the reaction time point was reached, to the reaction solution was added 10 mM LacNAc, and the reaction was terminated by a desalting column (Zeba™ Spin Desalting Columns/2 ml/40K, Thermo Fisher Scientific), and finally mass spectrometry was carried out and % of conversion was calculated. % of conversion was calculated according to Example 17.

[6] = system: Trastuzumab-(Fucα1,6)(GalNAzβ1,4)GlcNAc; assay: Transfer of GDP-FAmP4Biotin to Trastuzumab-(Fucα1,6)(GalNAzβ1,4)GlcNAc by different HpFTs; settings: donor GDP-FAmP4Biotin 1 mM, enzyme 0.5 mg/mL, 30° C., 3 h; FIG. 3

B1: HpFT-2HR: H. pylori α-1,3-fucosyltransferase variant: catalytically active domain, two heptapeptide repeat sequences and C-terminus fused His tag (protein)
chain: MFQPLLDAFIESASIEKMVSKSPPPPLKIAVANWWGDEEIKEFKKSVLYFILSQRYAITLHQNPNESSDLVFSNPLGAARKILSYQNTKRVFYTGENESPNFNLFDYAIGFDELDFNDRYLRMPLYYAHLHYEAELVNDTTAPYKLKDNSLYALKKPSHHFKENHPNLCAVVNDESDLLKRGFASFVASNANAPMRNAFYDALNSIEPVTGGGSVRNTLGYKVGNKSEFLSQYKFNLCFENSQGYGYVTEKILDAYFSHTIPIYWGSPSVAKDFNPKSFVNVHDFNNFDEAIDYIKYLHTHPNAYLDMLYENPLNTLDGKAYFYQDLSFKKILDFFKTILENDTIYHNNPFIFYRDLHEPLISIDDLRVNYDDLRVNYLEHHHHHH
modifications: Catalytically active domain of Helicobacter pylori Alpha-(1,3)-fucosyltransferase (GenBank No.AAD07710.1) with 2 heptapeptide repeats and a C-terminal His tag
[1]
  activity in catalyzing the transfer of GDP-FAmSucMMAE, as compared with HpFT-4HR: significantly improved activity
[2]
  catalytic activity as compared with HpFT-4HR (% of conversion): significantly improved catalytic activity
Durvalumab-G2F
  activity in catalyzing the transfer of GDP-FAmSucMMAE, as compared with HpFT-4HR: significantly improved activity
[3]
  activity in catalyzing the transfer of GDP-FAmSucMMAE, as compared with HpFT-4HR: significantly improved activity
Trastuzumab-G2F [4]
  catalytic activity among the HpFT variants: highest catalytic activity
  catalytic activity as compared with HpFT-4HR (% of conversion): significantly improved catalytic activity
Trastuzumab-G2F [5]; donor 1 mM
  activity in catalyzing the transfer of GDP-FAmP4Biotin relative to transfer of GDP-FAzP4Biotin: significantly higher
Trastuzumab-G2F [5]; donor GDP-FAmP4Biotin 1 mM
  activity in catalyzing the transfer of GDP-FAmP4Biotin, as compared with HpFT-4HR: significantly improved activity
Trastuzumab-G2F [5]; donor GDP-FAzP4Biotin 1 mM
  activity in catalyzing the transfer of GDP-FAzP4Biotin, as compared with HpFT-4HR: significantly improved activity
[6]
  catalytic activity among the HpFT variants: relatively high catalytic activity
  catalytic activity as compared with HpFT-4HR (% of conversion): significantly improved catalytic activity
